T1: His-SAPK3, O08911
T1 chain: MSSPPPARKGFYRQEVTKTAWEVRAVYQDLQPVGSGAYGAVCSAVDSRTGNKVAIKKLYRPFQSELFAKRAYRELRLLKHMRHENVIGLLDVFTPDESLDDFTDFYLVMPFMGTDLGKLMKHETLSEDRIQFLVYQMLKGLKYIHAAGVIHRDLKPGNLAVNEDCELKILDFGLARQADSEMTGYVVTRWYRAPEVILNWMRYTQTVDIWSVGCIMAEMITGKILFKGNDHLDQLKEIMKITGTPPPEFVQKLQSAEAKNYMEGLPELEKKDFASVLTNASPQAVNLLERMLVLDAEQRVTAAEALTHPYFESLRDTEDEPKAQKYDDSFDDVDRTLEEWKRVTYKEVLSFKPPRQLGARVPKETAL

B1: activated GST-MKK7 (protein)
chain: AASSLEQKLSRLEAKLKQENREARRRIDLNLDISPQRPRPIIVITLSPAPAPSQRAALQLPLANDGGSRSPSSESSPQHPTPPARPRHMLGLPSTLFTPRSMESIEIDQKLQEIMKQTGYLTIGGQRYQAEINDLENLGEMGSGTCGQVWKMRFRKTGHVIAVKQMRRSGNKEENKRILMDLDVVLKSHDCPYIVQCFGTFITNTDVFIAMELMGTCAEKLKKRMQGPIPERILGKMTVAIVKALYYLKEKHGVIHRDVKPSNILLDERGQIKLCDFGISGRLVDSKAKTRSAGCAAYMAPERIDPPDPTKPDYDIRADVWSLGISLVELATGQFPYKNCKTDFEVLTKVLQEEPPLLPGHMGFSGDFQSFVKDCLTKDHRKRPKYNKLLEHSFIKRYETLEVDVASWFKDVMAKTESPRTSGVLSQPHLPFFR
B2: His-MKK7 (protein)
chain: AASSLEQKLSRLEAKLKQENREARRRIDLNLDISPQRPRPIIVITLSPAPAPSQRAALQLPLANDGGSRSPSSESSPQHPTPPTRPRHMLGLPSTLFTPRSMESIEIDQKLQEIMKQTGYLTIGGQRYQAEINDLENLGEMGSGTCGQVWKMRFRKTGHIIAVKQMRRSGNKEENKRILMDLDVVLKSHDCPYIVQCFGTFITNTDVFIAMELMGTCAEKLKKRMQGPIPERILGKMTVAIVKALYYLKEKHGVIHRDVKPSNILLDERGQIKLCDFGISGRLVDSKAKTRSAGCAAYMAPERIDPPDPTKPDYDIRADVWSLGISLVELATGQFPYKNCKTDFEVLTKVLQEEPPLLPGHMGFSGDFQSFVKDCLTKDHRKRPKYNKLLEHSFIKHYEILEVDVASWFKDVMAKTESPRTSGVLSQHHLPFFSGSLEESPTSPPSPKSFPLSPAIPQAQAEWVSGR
B3: GST-SEK1 (protein)
chain: MAAPSPSGGGGSGGGGGTPGPIGPPASGHPAVSSMQGKRKALKLNFANPPVKSTARFTLNPNTTGVQNPHIERLRTHSIESSGKLKISPEQHWDFTAEDLKDLGEIGRGAYGSVNKMVHKPSGQIMAVKRIRSTVDEKEQKQLLMDLDVVMRSSDCPYIVQFYGALFREGDCWICMELMSTSFDKFYKYVYSVLDDVIPEEILGKITLATVKALNHLKENLKIIHRDIKPSNILLDRSGNIKLCDFGISGQLVDSIAKTRDAGCRPYMAPERIDPSASRQGYDVRSDVWSLGITLYELATGRFPYPKWNSVFDQLTQVVKGDPPQLSNSEEREFSPSFINFVNLCLTKDESKRPKYKELLKHPFILMYEERTVEVACYVCKILDQMPATPSSPMYVD
B4: His-MKK6 (protein)
chain: MSQSKGKKRNPGLKIPKEAFEQPQTSSTPPRDLDSKACISIGNQNFEVKADDLEPIMELGRGAYGVVEKMRHVPSGQIMAVKRIRATVNSQEQKRLLMDLDISMRTVDCPFTVTFYGALFREGDVWICMELMDTSLDKFYKQVIDKGQTIPEDILGKIAVSIVKALEHLHSKLSVIHRDVKPSNVLINALGQVKMCDFGISGYLVDSVAKTIDAGCKPYMAPERINPELNQKGYSVKSDIWSLGITMIELAILRFPYDSWGTPFQQLKQVVEEPSPQLPADKFSAEFVDFTSQCLKKNSKERPTYPELMQHPFFTLHESKGTDVASFVKLILGD

Key:
His-SAPK3, O08911 = target: T1, His-SAPK3, O08911

His-p38, P47811, sequence (P47811 whole entry): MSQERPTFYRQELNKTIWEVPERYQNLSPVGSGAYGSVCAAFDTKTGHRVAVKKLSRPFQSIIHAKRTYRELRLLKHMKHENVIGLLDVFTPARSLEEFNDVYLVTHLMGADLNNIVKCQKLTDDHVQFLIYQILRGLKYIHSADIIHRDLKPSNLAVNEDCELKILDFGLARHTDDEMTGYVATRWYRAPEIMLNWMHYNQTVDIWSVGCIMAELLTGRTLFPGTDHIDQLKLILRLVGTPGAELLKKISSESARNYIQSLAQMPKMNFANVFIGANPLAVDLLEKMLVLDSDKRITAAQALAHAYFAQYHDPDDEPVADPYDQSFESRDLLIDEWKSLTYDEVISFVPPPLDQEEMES
GST-JNK1, P45983, sequence (P45983 other isoform, or with tags, fused parts or gaps): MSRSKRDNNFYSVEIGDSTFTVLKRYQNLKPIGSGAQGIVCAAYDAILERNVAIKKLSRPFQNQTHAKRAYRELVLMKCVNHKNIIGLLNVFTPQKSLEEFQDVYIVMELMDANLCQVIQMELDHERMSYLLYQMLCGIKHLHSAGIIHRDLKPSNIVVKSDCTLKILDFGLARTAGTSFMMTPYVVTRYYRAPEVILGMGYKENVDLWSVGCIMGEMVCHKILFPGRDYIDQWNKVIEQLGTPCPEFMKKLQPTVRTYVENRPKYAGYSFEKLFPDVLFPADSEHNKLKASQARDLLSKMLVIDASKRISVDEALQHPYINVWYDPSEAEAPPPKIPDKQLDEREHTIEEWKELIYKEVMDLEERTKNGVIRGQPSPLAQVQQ

Protein	phosphorylation (activation) of JNK1 in vitro, dot blot with anti-activated JNK antibody (GST-JNK1, P45983)	activation of the MAP kinase in vitro (32P phosphorylation of MBP, SDS-PAGE and autoradiography) (His-SAPK3, O08911)	activation of the MAP kinase in vitro (32P phosphorylation of ATF-2, SDS-PAGE and autoradiography) (His-p38, P47811)	activation of the MAP kinase in vitro (32P phosphorylation of GST-cJun, SDS-PAGE and autoradiography) (His-SAPKα, Q9WTU6)
B1	the activity of MKK7 was confirmed by the presence of activated JNK1	–	–	–
B2	–	did not activate p38 and SAPK3	did not activate p38 and SAPK3	specifically activated SAPK, leading to the phosphorylation of c-Jun
B3	–	activated all of SAPK, p38 and SAPK3	activated all of SAPK, p38 and SAPK3	activated all of SAPK, p38 and SAPK3
B4	–	activated p38 and SAPK3	activated p38 and SAPK3	did not activate SAPK

Reference: patent US6465618
